From the Immune Epitope Database (IEDB) come the findings set out here.

Bounds are passed on as bounds.

The target in assay [1] is HLA-C*14:02. Briefly: IEDB peptide-MHC binding, purified MHC/direct/fluorescence; filed as Kd, often an IC50 or EC50 that approximates it; ≥ and ≤ were set here for values at or beyond the usual limits of such assays. The settings on record: source organism: Yersinia pseudotuberculosis IP 31758.
The next assay addresses HLA-C*15:02. The description is as above. The following applies: source organism: Yersinia pseudotuberculosis IP 31758.
The target in assay [2] is HLA-A*02:01. Description: IEDB peptide-MHC binding, purified MHC/competitive/fluorescence; filed as Kd, often an IC50 or EC50 that approximates it; ≥ and ≤ were set here for values at or beyond the usual limits of such assays. The following applies: source organism: Yersinia pseudotuberculosis IP 31758.
For another assay, the target named is HLA-A*32:07. The description is as above.
Another assay concerns the target HLA-B*15:42. The description is as above.
A further assay addresses HLA-B*27:20. The assay is described as above.
The target of a further assay is HLA-B*40:13. The description is as above.
For the next assay, the target named is HLA-B*45:06. The description is as above.
The target of another assay is HLA-B*83:01. Described as above.
Assay [3] addresses HLA-C*06:02. The description is as above. The following applies: source organism: Yersinia pseudotuberculosis IP 31758.
The target in assay [4] is HLA-A*01:01. Briefly: IEDB peptide-MHC binding, purified MHC/competitive/radioactivity; ≥ and ≤ were set here for values at or beyond the usual limits of such assays. The settings on record: source organism: Homo sapiens.
For assay [5], the target named is HLA-A*01:01. Description: IEDB peptide-MHC binding, purified MHC/direct/fluorescence; filed as Kd, often an IC50 or EC50 that approximates it; ≥ and ≤ were set here for values at or beyond the usual limits of such assays.
Another assay addresses HLA-A*11:01. The description is as above.
The target in a further assay is HLA-B*15:01. The description is as above.
For assay [6], the target named is HLA-A*02:01. Described as above.
A further assay addresses HLA-A*03:01. The assay is described as above.
In a further assay the target is HLA-A*24:03. The assay is described as above. The following applies: source organism: Klebsiella pneumoniae.
In another assay the target is HLA-A*26:01. The description is as above.
In a further assay the target is HLA-A*31:01. Described as above.
The target in another assay is HLA-A*69:01. The assay is described as above.
For the next assay, the target named is HLA-B*07:02. The assay is described as above.
The next assay addresses HLA-B*08:01. The assay is described as above. The following applies: source organism: Klebsiella pneumoniae.
The next assay deals with HLA-B*27:05. Described as above.
In the next assay the target is HLA-B*40:01. Described as above.
The target of the next assay is HLA-B*58:01. The description is as above.
Another assay concerns the target HLA-A*02:50. Description: IEDB peptide-MHC binding, purified MHC/competitive/fluorescence; filed as Kd, often an IC50 or EC50 that approximates it; ≥ and ≤ were set here for values at or beyond the usual limits of such assays.
In a further assay the target is HLA-C*03:03. Briefly: IEDB peptide-MHC binding, purified MHC/direct/fluorescence; filed as Kd, often an IC50 or EC50 that approximates it; ≥ and ≤ were set here for values at or beyond the usual limits of such assays. The settings on record: source organism: Escherichia coli HS.
The target of assay [7] is HLA-C*06:02. The description is as above. The settings on record: source organism: Escherichia coli HS.
The next assay deals with HLA-C*07:02. The assay is described as above. The settings on record: source organism: Escherichia coli HS.
The target in another assay is HLA-C*12:03. Described as above. The following applies: source organism: Escherichia coli HS.
The next assay deals with HLA-A*32:15. Briefly: IEDB peptide-MHC binding, purified MHC/competitive/fluorescence; filed as Kd, often an IC50 or EC50 that approximates it; ≥ and ≤ were set here for values at or beyond the usual limits of such assays. The settings on record: source organism: Escherichia coli HS.
The target in the next assay is HLA-B*48:01. The assay is described as above. The following applies: source organism: Escherichia coli HS.
Another assay has as its target HLA-C*04:01. The description is as above. The settings on record: source organism: Escherichia coli HS.
In assay [8] the target is HLA-C*14:02. The assay is described as above. The settings on record: source organism: Escherichia coli HS.
A further assay has as its target HLA-A*02:06. Briefly: IEDB peptide-MHC binding, purified MHC/direct/fluorescence; filed as Kd, often an IC50 or EC50 that approximates it; ≥ and ≤ were set here for values at or beyond the usual limits of such assays. The settings on record: source organism: Giardia lamblia ATCC 50803.
The next assay addresses HLA-A*02:11. The description is as above. The following applies: source organism: Giardia lamblia ATCC 50803.
For the next assay, the target named is HLA-A*02:12. The description is as above. The settings on record: source organism: Giardia lamblia ATCC 50803.
The next assay addresses HLA-A*02:16. Described as above. The following applies: source organism: Giardia lamblia ATCC 50803.
Another assay concerns the target HLA-A*02:19. The description is as above. The following applies: source organism: Giardia lamblia ATCC 50803.
A further assay deals with HLA-A*24:02. The assay is described as above. The following applies: source organism: Giardia lamblia ATCC 50803.
In a further assay the target is HLA-B*08:02. Described as above. The following applies: source organism: Giardia lamblia ATCC 50803.
Another assay addresses HLA-B*18:01. Described as above. The following applies: source organism: Giardia lamblia ATCC 50803.
The next assay addresses HLA-B*44:02. The assay is described as above. The following applies: source organism: Giardia lamblia ATCC 50803.
In another assay the target is HLA-B*46:01. The description is as above. The following applies: source organism: Giardia lamblia ATCC 50803.
Setting [9] is: source organism: Yersinia pseudotuberculosis IP 31758.
Setting [10] is: source organism: Klebsiella pneumoniae.
[11] abbreviates: source organism: Escherichia coli HS.
Setting [12] is: source organism: Giardia lamblia ATCC 50803.

As for FQWWRSHPL, the dissociation constant Kd with HLA-C*14:02 [1] was 232 nM; with HLA-C*15:02, 1400 nM; with HLA-A*02:01 [2] it was not above 0.1 nM; with HLA-A*32:07 (setting [9]), 73.6 nM; with HLA-B*15:42 (setting [9]), not below 5000 nM; in the assay with HLA-B*27:20 (setting [9]), not above 0.1 nM. For the same sequence, the Kd was 1.3 nM with HLA-B*40:13 (setting [9]), not below 5000 nM with HLA-B*45:06 (setting [9]), 475 nM in the assay with HLA-B*83:01 (setting [9]) and 837 nM with HLA-C*06:02 [3].
Regarding IVDCLTEMY, the 50% inhibitory concentration (IC50) with HLA-A*01:01 [4] was 7 nM. Further, the dissociation constant Kd came to 164 nM with HLA-A*01:01 [5] (source organism: Homo sapiens), 2020 nM in the assay with HLA-A*11:01 (source organism: Homo sapiens) and 1090 nM with HLA-B*15:01 (source organism: Homo sapiens).
Regarding LLQEKYGLI, the Kd was not below 20000 nM in the assay with HLA-A*01:01 [5] (setting [10]); 1180 nM with HLA-A*02:01 [6] (setting [10]); not below 20000 nM with HLA-A*03:01 (setting [10]); not below 20000 nM with HLA-A*11:01 (setting [10]); not below 20000 nM in the assay with HLA-A*24:03; not below 20000 nM with HLA-A*26:01 (setting [10]). Moreover, the Kd was not below 20000 nM with HLA-A*31:01 (setting [10]); not below 20000 nM with HLA-A*69:01 (setting [10]); not below 20000 nM in the assay with HLA-B*07:02 (setting [10]); 7890 nM with HLA-B*08:01; not below 20000 nM in the assay with HLA-B*15:01 (setting [10]); not below 20000 nM with HLA-B*27:05 (setting [10]). Besides, the Kd with HLA-B*40:01 (setting [10]) is not below 20000 nM; with HLA-B*58:01 (setting [10]) it was not below 20000 nM; with HLA-A*02:50 (setting [10]), 17.7 nM.
With MMWATAQAL, the equilibrium dissociation constant (Kd) in the assay with HLA-C*03:03 was 337 nM; with HLA-C*06:02 [7] it was not below 20000 nM; with HLA-C*07:02 it was 572 nM; in the assay with HLA-C*12:03 it was 1640 nM; with HLA-A*32:07 (setting [11]), 42 nM; with HLA-A*32:15 it was 391 nM. The dissociation constant (Kd) was not below 5000 nM in the assay with HLA-B*15:42 (setting [11]); 6.4 nM in the assay with HLA-B*27:20 (setting [11]); 212 nM with HLA-B*40:13 (setting [11]); not below 5000 nM with HLA-B*45:06 (setting [11]); 242 nM with HLA-B*48:01; not below 5000 nM with HLA-B*83:01 (setting [11]). Further, the values for the dissociation constant Kd in the assay with HLA-C*04:01 and with HLA-C*14:02 [8] were not below 5000 nM and 6.4 nM, respectively.
YLDMVLAFL: the Kd with HLA-A*01:01 [5] (setting [12]) was not below 20000 nM; in the assay with HLA-A*02:01 [6] (setting [12]), 18.5 nM; with HLA-A*02:06 it was not above 1 nM; with HLA-A*02:11 it was not above 1 nM; with HLA-A*02:12, not above 1 nM; in the assay with HLA-A*02:16, not above 1 nM. The Kd in the assay with HLA-A*02:19 was not above 1 nM; with HLA-A*03:01 (setting [12]) it was not below 20000 nM; with HLA-A*11:01 (setting [12]) it was not below 20000 nM; in the assay with HLA-A*24:02, not below 20000 nM; with HLA-A*26:01 (setting [12]), not below 20000 nM; in the assay with HLA-A*31:01 (setting [12]) it was not below 20000 nM. In addition, the dissociation constant (Kd) with HLA-A*69:01 (setting [12]), with HLA-B*07:02 (setting [12]), with HLA-B*08:02, with HLA-B*15:01 (setting [12]), in the assay with HLA-B*18:01 and with HLA-B*27:05 (setting [12]) was not below 20000 nM in each case. The Kd is not below 20000 nM with HLA-B*40:01 (setting [12]); not below 20000 nM in the assay with HLA-B*44:02; not below 20000 nM with HLA-B*46:01; not below 20000 nM in the assay with HLA-B*58:01 (setting [12]); not above 0.1 nM with HLA-A*02:50 (setting [12]).
